In the supplement of paper PMC10724198:
± gives the standard deviation of the averaged measurements.

Tested on: Saccharomyces cerevisiae
Test: protein stability index of tFT-peptide fusion (C-terminal peptide) (PSI (0-1 scale)); higher = more stable (slower turnover)
Conditions: temperature: 30 C
Procedure: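 MPS profiling in S. cerevisiae of the yeast C-terminome library: the last 12 aa of each annotated ORF are fused to the C-terminus of a sfGFP-mCherry timer, after a GGGS linker. Cells are FACS-sorted into 8 mCherry/sfGFP bins and deep-sequenced. PSI runs from 0 (unstable) to 1 (stable); wild type and das1Δ backgrounds, two technical replicates each.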

[1] = genetic background: das1 deletion

Sequence | protein stability index [1] | protein stability index (genetic background: wild type)
ERLIQQGYLQKI [PSF1 C-terminal 12 aa] | 0.698 ± 0.024 | 0.683 ± 0.035
NENDFNFINWEG [FLO8 C-terminal 12 aa] | 0.741 ± 0.037 | 0.7071 ± 0.0051
LMVPDPWYREGN [FAB1 C-terminal 12 aa] | 0.726 ± 0.018 | 0.721 ± 0.031
FAEYNRLSAIPV [LAM1 C-terminal 12 aa] | 0.447 ± 0.015 | 0.478 ± 0.02
KWLWRELEESSL [OCA5 C-terminal 12 aa] | 0.745 ± 0.018 | 0.7234 ± 0.0014
ATSTAAAADKKT [HAP2 C-terminal 12 aa] | 0.6674 ± 0.0023 | 0.724 ± 0.04
VQNLIAAVMGEL [PNP1 C-terminal 12 aa] | 0.7186 ± 0.002 | 0.664 ± 0.024
SLDDFGVDVDME [PFA4 C-terminal 12 aa] | 0.711 ± 0.016 | 0.683 ± 0.016
DLASFIKKSLSS [TML25 C-terminal 12 aa] | 0.694 ± 0.017 | 0.734 ± 0.032
GGIRKISGSIKK [CDC14 C-terminal 12 aa] | 0.71 ± 0.01 | 0.667 ± 0.037
KHKNILFFNHNT [YJR162C C-terminal 12 aa] | 0.725 ± 0.015 | 0.199 ± 0.0036
FLVNTTNKKESD [YIL092W C-terminal 12 aa] | 0.6861 ± 0.004 | 0.693 ± 0.024
EGPRGETIVERF [YJL047C-A C-terminal 12 aa] | 0.698 ± 0.008 | 0.6955 ± 0.0027
RTANVVGLDVPT [FMC1 C-terminal 12 aa] | 0.683 ± 0.017 | 0.6639 ± 0.0044
DSFFFDVLAQLP [YLR434C C-terminal 12 aa] | 0.7357 ± 0.0072 | 0.686 ± 0.012
RAQPGRKRKHKK [RSC58 C-terminal 12 aa] | 0.743 ± 0.019 | 0.696 ± 0.0068
YTNLIASKVKKQ [YKL177W C-terminal 12 aa] | 0.714 ± 0.036 | 0.6504 ± 0.0044
EKKKNPYWYYQW [GEP3 C-terminal 12 aa] | 0.735 ± 0.009 | 0.673 ± 0.025
VYEVVCDSVRNW [MRX21 C-terminal 12 aa] | 0.692 ± 0.023 | 0.717 ± 0.0011
ALSEYMENTSGL [RSC9 C-terminal 12 aa] | 0.696 ± 0.059 | 0.728 ± 0.014
GHLSSSRRRLRT [SUV3 C-terminal 12 aa] | 0.7217 ± 0.0043 | 0.7 ± 0.034

Sequence | protein stability index [1] | protein stability index (genetic background: wild type)
KNLTRTSVSFIG [TRS85 C-terminal 12 aa] | 0.7307 ± 0.0033 | 0.702 ± 0.037
GLFPSNYVSLGN [ABP1 C-terminal 12 aa] | 0.689 ± 0.0081 | 0.721 ± 0.01
LNNLSMERSIRL [GIP3 C-terminal 12 aa] | 0.715 ± 0.015 | 0.666 ± 0.014
KLAKPAPTSKLD [TDA4 C-terminal 12 aa] | 0.6901 ± 0.0021 | 0.692 ± 0.025
TDNGSVLPLNPS [BAS1 C-terminal 12 aa] | 0.696 ± 0.015 | 0.697 ± 0.028
SKKVICNTFGYN [DDI2 C-terminal 12 aa] | 0.689 ± 0.027 | 0.733 ± 0.1
DNPETKNGRENK [ECM10 C-terminal 12 aa] | 0.675 ± 0.016 | 0.6426 ± 0.00097
KPGLTVYSIELL [SMP3 C-terminal 12 aa] | 0.6898 ± 0.0048 | 0.692 ± 0.011
VKSSMGPAFRLY [RPL1A C-terminal 12 aa] | 0.6853 ± 0.0045 | 0.712 ± 0.046
PAKVGIVKGEEN [MGE1 C-terminal 12 aa] | 0.693 ± 0.021 | 0.709 ± 0.015
SALNKIKADEKK [ACO1 C-terminal 12 aa] | 0.689 ± 0.024 | 0.684 ± 0.024
TREPISYKLDIQ [ERO1 C-terminal 12 aa] | 0.678 ± 0.044 | 0.67 ± 0.024
QAADKRIDRNNP [SRD1 C-terminal 12 aa] | 0.7185 ± 0.0037 | 0.702 ± 0.022
KNSNLSPTQIEL [SSK1 C-terminal 12 aa] | 0.7083 ± 0.0012 | 0.693 ± 0.024
ASRFAQFLKQDA [MET16 C-terminal 12 aa] | 0.717 ± 0.012 | 0.764 ± 0.15
SFVKIQDAIKKT [MRPL9 C-terminal 12 aa] | 0.7417 ± 0.0063 | 0.627 ± 0.015
YSDTIWNVEPVT [GPH1 C-terminal 12 aa] | 0.729 ± 0.015 | 0.73 ± 0.018
RRMKLKERKRTT [YBL029W C-terminal 12 aa] | 0.713 ± 0.022 | 0.655 ± 0.05
LSDLHIKEAKID [OGG1 C-terminal 12 aa] | 0.7101 ± 0.0056 | 0.568 ± 0.021
KSVRIAIDKPIR [ALD5 C-terminal 12 aa] | 0.696 ± 0.026 | 0.666 ± 0.018
NVLGEPFDRYLD [UTP10 C-terminal 12 aa] | 0.724 ± 0.017 | 0.716 ± 0.013

Sequence | protein stability index [1] | protein stability index (genetic background: wild type)
AIQEYNARYPLN [ABF2 C-terminal 12 aa] | 0.708 ± 0.0085 | 0.707 ± 0.021
AYVLFYHRVYGV [DOA4 C-terminal 12 aa] | 0.691 ± 0.011 | 0.648 ± 0.026
VSIYKPYTEESE [WTM1 C-terminal 12 aa] | 0.662 ± 0.0069 | 0.663 ± 0.027
VVAQKPKLPYTK [YBR225W C-terminal 12 aa] | 0.694 ± 0.026 | 0.725 ± 0.066
EMVKKHALNGRI [NRS1 C-terminal 12 aa] | 0.7115 ± 0.004 | 0.671 ± 0.025
LSDLRAWTLKVA [YDR491C C-terminal 12 aa] | 0.7058 ± 0.0027 | 0.329 ± 0.0064
NSGSAATDSPFN [STS1 C-terminal 12 aa] | 0.727 ± 0.013 | 0.674 ± 0.034
DVFEEIGYSMKD [SAE3 C-terminal 12 aa] | 0.715 ± 0.0034 | 0.789 ± 0.041
PKINPLHARKPT [RAD52 C-terminal 12 aa] | 0.7086 ± 0.0022 | 0.7036 ± 0.0028
TSILEDVDGDDE [YOL050C C-terminal 12 aa] | 0.706 ± 0.041 | 0.669 ± 0.026
FGQDGCLYIYNQ [YHR045W C-terminal 12 aa] | 0.713 ± 0.015 | 0.698 ± 0.021
TCISVFLEVHQV [YDL206W C-terminal 12 aa] | 0.479 ± 0.017 | 0.4633 ± 0.0046
GAGALAAAAMLL [CWP2 C-terminal 12 aa] | 0.711 ± 0.032 | 0.665 ± 0.027
EDAEKRADEMDD [SRM1 C-terminal 12 aa] | 0.691 ± 0.034 | 0.675 ± 0.033
TFKPIYLWALDL [SPP382 C-terminal 12 aa] | 0.6938 ± 0.0043 | 0.6753 ± 0.0057
WEKFIELEKNYK [MST1 C-terminal 12 aa] | 0.696 ± 0.0078 | 0.799 ± 0.04
IADHLVGRKRVD [PFK2 C-terminal 12 aa] | 0.701 ± 0.014 | 0.712 ± 0.059
IEQEAKQRERNQ [COA6 C-terminal 12 aa] | 0.6993 ± 0.0011 | 0.701 ± 0.02
EFTDEWFKEHSS [STH1 C-terminal 12 aa] | 0.757 ± 0.0035 | 0.719 ± 0.0073
DDFKKAFREKRK [ALY1 C-terminal 12 aa] | 0.729 ± 0.013 | 0.676 ± 0.044
VFPGNYVQLNKN [RVS167 C-terminal 12 aa] | 0.6933 ± 0.0022 | 0.679 ± 0.027

Sequence | protein stability index [1] | protein stability index (genetic background: wild type)
LLILLVLFSKFK [VTI1 C-terminal 12 aa] | 0.295 ± 0.02 | 0.302 ± 0.0073
HLYFQNPPPAMC [HOT13 C-terminal 12 aa] | 0.72 ± 0.021 | 0.728 ± 0.031
YNSDSGSYYTLM [YOR192C-C C-terminal 12 aa] | 0.704 ± 0.017 | 0.731 ± 0.097
VDESWLPETYKK [IRC22 C-terminal 12 aa] | 0.7425 ± 0.0014 | 0.711 ± 0.022
GLSLSFSKKLDL [DSN1 C-terminal 12 aa] | 0.685 ± 0.023 | 0.671 ± 0.026
KKKLVKKTKSKK [RIO1 C-terminal 12 aa] | 0.739 ± 0.01 | 0.705 ± 0.081
INRRQTPLQSNA [CDC39 C-terminal 12 aa] | 0.7 ± 0.011 | 0.666 ± 0.011
AELILETSYDKF [MRX1 C-terminal 12 aa] | 0.729 ± 0.011 | 0.722 ± 0.055
SLPLVSLFIVLA [YJL064W C-terminal 12 aa] | 0.267 ± 0.019 | 0.268 ± 0.0062
QVTAVVVSYQGV [ATG11 C-terminal 12 aa] | 0.5882 ± 0.0024 | 0.5999 ± 0.0039
LRSCDLKRKSKK [YLR302C C-terminal 12 aa] | 0.678 ± 0.037 | 0.68 ± 0.028
KKKQNDGKSLRS [DBP8 C-terminal 12 aa] | 0.687 ± 0.013 | 0.732 ± 0.0081
KCLDLLKTELGE [POC4 C-terminal 12 aa] | 0.699 ± 0.018 | 0.6935 ± 0.0043
ENKNWSIITPSG [YBL086C C-terminal 12 aa] | 0.68945 ± 7e-05 | 0.684 ± 0.018
RNLLSTYHPMLM [YLR124W C-terminal 12 aa] | 0.679 ± 0.0082 | 0.665 ± 0.0023
AYQIRQEVLQSL [SGA1 C-terminal 12 aa] | 0.65923 ± 0.00056 | 0.672 ± 0.012
HLEKKEPKSRKK [YDL129W C-terminal 12 aa] | 0.724 ± 0.013 | 0.689 ± 0.03
KFDKPLYERLET [YNR014W C-terminal 12 aa] | 0.6855 ± 0.0028 | 0.651 ± 0.044
NLLRFIVGVDVL [YDR426C C-terminal 12 aa] | 0.639 ± 0.0092 | 0.638 ± 0.0082
